# Laboratory results taken from patent US20140087995A1 (published 2014).
# Numbered stars: 1 amine (or outer) side, 2 acyl side, 3 side chain; on linkers, the order of the positions; unused ones are H or OH. Bridge positions count the residues as written; N and C are the ends. Side chains are listed from the residue outwards. Ends that are not written are not given here. * marks the point of attachment. C20 diacid = O=C(O)CCCCCCCCCCCCCCCCCCC(=O)*; γGlu = O=C(O)[C@H](CCC(=O)[*:2])N[*:1]; AEEA = NCCOCCOCC(=O)O
# T1: human amylin receptor (human, UniProt P30988 25-474; O60896 24-148, limits assumed)
# T1 construct: whole, on cells; Used as cell membranes prepared from the Amylin 3(a)/CRE-luc BHK cells (Assay V); also called hAmylin-R; hAmylinR
# T1 sequence (looked up) 1: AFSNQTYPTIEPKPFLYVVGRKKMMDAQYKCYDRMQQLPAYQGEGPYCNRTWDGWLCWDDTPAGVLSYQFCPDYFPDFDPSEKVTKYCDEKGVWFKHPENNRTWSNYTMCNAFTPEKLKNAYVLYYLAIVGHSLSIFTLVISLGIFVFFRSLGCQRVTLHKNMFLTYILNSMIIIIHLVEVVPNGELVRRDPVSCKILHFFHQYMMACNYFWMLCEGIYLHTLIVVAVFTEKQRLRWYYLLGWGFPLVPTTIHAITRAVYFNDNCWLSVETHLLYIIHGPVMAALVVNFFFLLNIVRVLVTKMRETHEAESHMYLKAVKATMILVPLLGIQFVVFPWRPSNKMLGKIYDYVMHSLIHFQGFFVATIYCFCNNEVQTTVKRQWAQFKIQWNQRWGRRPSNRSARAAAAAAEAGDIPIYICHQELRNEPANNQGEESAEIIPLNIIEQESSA
# T1 sequence (looked up) 2: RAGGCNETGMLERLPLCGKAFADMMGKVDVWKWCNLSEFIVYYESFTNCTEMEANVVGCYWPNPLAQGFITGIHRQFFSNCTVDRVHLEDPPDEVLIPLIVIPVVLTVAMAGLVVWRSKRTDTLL
# Biological target: T1, human amylin receptor
# Assay: SPA competition vs 125I-rat amylin, membranes of amylin 3(a) receptor BHK cells (Assay V)
# How it was run: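 SPA beads + BHK amylin 3(a)/CRE-luc membranes, 35 ng/μL final; buffer 50 mM Hepes pH 7.4, 1 mM CaCl2, 5 mM MgCl₂, 0.1% OA, 0.02% Tween20. 120 min, 25° C, shaken; scintillation count. IC₅₀ by one-site binding competition fit, taken as receptor affinity.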
row,IC50,Binder
1,427 pM,"K([AEEA-γGlu-C20 diacid])CNTATCATQRLANFLRHSSPNFGAIPSSTNVGSNTY-NH2 (disulfide 2-7; N-terminus assumed; SMILES CC[C@H](C)[C@H](NC(=O)[C@H](C)NC(=O)CNC(=O)[C@H](Cc1ccccc1)NC(=O)[C@H](CC(N)=O)NC(=O)[C@@H]1CCCN1C(=O)[C@H](CO)NC(=O)[C@H](CO)NC(=O)[C@H](Cc1c[nH]cn1)NC(=O)[C@H](CCCNC(=N)N)NC(=O)[C@H](CC(C)C)NC(=O)[C@H](Cc1ccccc1)NC(=O)[C@H](CC(N)=O)NC(=O)[C@H](C)NC(=O)[C@H](CC(C)C)NC(=O)[C@H](CCCNC(=N)N)NC(=O)[C@H](CCC(N)=O)NC(=O)[C@@H](NC(=O)[C@H](C)NC(=O)[C@@H]1CSSC[C@H](NC(=O)[C@@H](N)CCCCNC(=O)COCCOCCNC(=O)CC[C@H](NC(=O)CCCCCCCCCCCCCCCCCCC(=O)O)C(=O)O)C(=O)N[C@@H](CC(N)=O)C(=O)N[C@@H]([C@@H](C)O)C(=O)N[C@@H](C)C(=O)N[C@@H]([C@@H](C)O)C(=O)N1)[C@@H](C)O)C(=O)N1CCC[C@H]1C(=O)N[C@@H](CO)C(=O)N[C@@H](CO)C(=O)N[C@H](C(=O)N[C@@H](CC(N)=O)C(=O)N[C@H](C(=O)NCC(=O)N[C@@H](CO)C(=O)N[C@@H](CC(N)=O)C(=O)N[C@H](C(=O)N[C@@H](Cc1ccc(O)cc1)C(N)=O)[C@@H](C)O)C(C)C)[C@@H](C)O, also called compound 41)"
2,76 pM,"K([AEEA-C20 diacid])CNTATCATQRLANFLRHSSPNFGAIPSSTNVGSNTY-NH2 (disulfide 2-7; N-terminus assumed; SMILES CC[C@H](C)[C@H](NC(=O)[C@H](C)NC(=O)CNC(=O)[C@H](Cc1ccccc1)NC(=O)[C@H](CC(N)=O)NC(=O)[C@@H]1CCCN1C(=O)[C@H](CO)NC(=O)[C@H](CO)NC(=O)[C@H](Cc1c[nH]cn1)NC(=O)[C@H](CCCNC(=N)N)NC(=O)[C@H](CC(C)C)NC(=O)[C@H](Cc1ccccc1)NC(=O)[C@H](CC(N)=O)NC(=O)[C@H](C)NC(=O)[C@H](CC(C)C)NC(=O)[C@H](CCCNC(=N)N)NC(=O)[C@H](CCC(N)=O)NC(=O)[C@@H](NC(=O)[C@H](C)NC(=O)[C@@H]1CSSC[C@H](NC(=O)[C@@H](N)CCCCNC(=O)COCCOCCNC(=O)CCCCCCCCCCCCCCCCCCC(=O)O)C(=O)N[C@@H](CC(N)=O)C(=O)N[C@@H]([C@@H](C)O)C(=O)N[C@@H](C)C(=O)N[C@@H]([C@@H](C)O)C(=O)N1)[C@@H](C)O)C(=O)N1CCC[C@H]1C(=O)N[C@@H](CO)C(=O)N[C@@H](CO)C(=O)N[C@H](C(=O)N[C@@H](CC(N)=O)C(=O)N[C@H](C(=O)NCC(=O)N[C@@H](CO)C(=O)N[C@@H](CC(N)=O)C(=O)N[C@H](C(=O)N[C@@H](Cc1ccc(O)cc1)C(N)=O)[C@@H](C)O)C(C)C)[C@@H](C)O, also called compound 43) [N^ε1-[2-[2-[2-(19-carboxynonadecanoylamino)ethoxy]ethoxy]acetyl]-[Arg17,Pro21,Pro27]-h-amylin]"
3,195 pM,"{C20 diacid-γGlu}-GRCNTATCATQRLANFLRHSSPNFGAIPSSTNVGSNTY-NH2 (disulfide 3-8; SMILES CC[C@H](C)[C@H](NC(=O)[C@H](C)NC(=O)CNC(=O)[C@H](Cc1ccccc1)NC(=O)[C@H](CC(N)=O)NC(=O)[C@@H]1CCCN1C(=O)[C@H](CO)NC(=O)[C@H](CO)NC(=O)[C@H](Cc1c[nH]cn1)NC(=O)[C@H](CCCNC(=N)N)NC(=O)[C@H](CC(C)C)NC(=O)[C@H](Cc1ccccc1)NC(=O)[C@H](CC(N)=O)NC(=O)[C@H](C)NC(=O)[C@H](CC(C)C)NC(=O)[C@H](CCCNC(=N)N)NC(=O)[C@H](CCC(N)=O)NC(=O)[C@@H](NC(=O)[C@H](C)NC(=O)[C@@H]1CSSC[C@H](NC(=O)[C@H](CCCNC(=N)N)NC(=O)CNC(=O)CC[C@H](NC(=O)CCCCCCCCCCCCCCCCCCC(=O)O)C(=O)O)C(=O)N[C@@H](CC(N)=O)C(=O)N[C@@H]([C@@H](C)O)C(=O)N[C@@H](C)C(=O)N[C@@H]([C@@H](C)O)C(=O)N1)[C@@H](C)O)C(=O)N1CCC[C@H]1C(=O)N[C@@H](CO)C(=O)N[C@@H](CO)C(=O)N[C@H](C(=O)N[C@@H](CC(N)=O)C(=O)N[C@H](C(=O)NCC(=O)N[C@@H](CO)C(=O)N[C@@H](CC(N)=O)C(=O)N[C@H](C(=O)N[C@@H](Cc1ccc(O)cc1)C(N)=O)[C@@H](C)O)C(C)C)[C@@H](C)O, also called compound 46) [N^-1-[(4S)-4-carboxy-4-(19-carboxynonadecanoylamino)butanoyl]-Gly[Arg1,Arg17,Pro21,Pro27]-h-amylin]"
4,114 pM,{C20 diacid-γGlu}-GRCNTATCATQRLAAFLRHSSPNFGAIPSSTNVGPNTY-NH2 (disulfide 3-8)
5,217 pM,{C20 diacid-γGlu}-GRCNTATCATQRLAHFLRHSSPNFGAIPSSTNVGPNTY-NH2 (disulfide 3-8; SMILES CC[C@H](C)[C@H](NC(=O)[C@H](C)NC(=O)CNC(=O)[C@H](Cc1ccccc1)NC(=O)[C@H](CC(N)=O)NC(=O)[C@@H]1CCCN1C(=O)[C@H](CO)NC(=O)[C@H](CO)NC(=O)[C@H](Cc1c[nH]cn1)NC(=O)[C@H](CCCNC(=N)N)NC(=O)[C@H](CC(C)C)NC(=O)[C@H](Cc1ccccc1)NC(=O)[C@H](Cc1c[nH]cn1)NC(=O)[C@H](C)NC(=O)[C@H](CC(C)C)NC(=O)[C@H](CCCNC(=N)N)NC(=O)[C@H](CCC(N)=O)NC(=O)[C@@H](NC(=O)[C@H](C)NC(=O)[C@@H]1CSSC[C@H](NC(=O)[C@H](CCCNC(=N)N)NC(=O)CNC(=O)CC[C@H](NC(=O)CCCCCCCCCCCCCCCCCCC(=O)O)C(=O)O)C(=O)N[C@@H](CC(N)=O)C(=O)N[C@@H]([C@@H](C)O)C(=O)N[C@@H](C)C(=O)N[C@@H]([C@@H](C)O)C(=O)N1)[C@@H](C)O)C(=O)N1CCC[C@H]1C(=O)N[C@@H](CO)C(=O)N[C@@H](CO)C(=O)N[C@H](C(=O)N[C@@H](CC(N)=O)C(=O)N[C@H](C(=O)NCC(=O)N1CCC[C@H]1C(=O)N[C@@H](CC(N)=O)C(=O)N[C@H](C(=O)N[C@@H](Cc1ccc(O)cc1)C(N)=O)[C@@H](C)O)C(C)C)[C@@H](C)O)
6,552 pM,"K([AEEA-γGlu-C20 diacid])RCNTATCATQRLANFLRHSSPNFGAIPSSTNVGSHTY-NH2 (disulfide 3-8; N-terminus assumed; SMILES CC[C@H](C)[C@H](NC(=O)[C@H](C)NC(=O)CNC(=O)[C@H](Cc1ccccc1)NC(=O)[C@H](CC(N)=O)NC(=O)[C@@H]1CCCN1C(=O)[C@H](CO)NC(=O)[C@H](CO)NC(=O)[C@H](Cc1c[nH]cn1)NC(=O)[C@H](CCCNC(=N)N)NC(=O)[C@H](CC(C)C)NC(=O)[C@H](Cc1ccccc1)NC(=O)[C@H](CC(N)=O)NC(=O)[C@H](C)NC(=O)[C@H](CC(C)C)NC(=O)[C@H](CCCNC(=N)N)NC(=O)[C@H](CCC(N)=O)NC(=O)[C@@H](NC(=O)[C@H](C)NC(=O)[C@@H]1CSSC[C@H](NC(=O)[C@H](CCCNC(=N)N)NC(=O)[C@@H](N)CCCCNC(=O)COCCOCCNC(=O)CC[C@H](NC(=O)CCCCCCCCCCCCCCCCCCC(=O)O)C(=O)O)C(=O)N[C@@H](CC(N)=O)C(=O)N[C@@H]([C@@H](C)O)C(=O)N[C@@H](C)C(=O)N[C@@H]([C@@H](C)O)C(=O)N1)[C@@H](C)O)C(=O)N1CCC[C@H]1C(=O)N[C@@H](CO)C(=O)N[C@@H](CO)C(=O)N[C@H](C(=O)N[C@@H](CC(N)=O)C(=O)N[C@H](C(=O)NCC(=O)N[C@@H](CO)C(=O)N[C@@H](Cc1c[nH]cn1)C(=O)N[C@H](C(=O)N[C@@H](Cc1ccc(O)cc1)C(N)=O)[C@@H](C)O)C(C)C)[C@@H](C)O, also called compound 45)"
7,426 pM,{C20 diacid-γGlu}-GRCNTATCATQRLAAFLRHSSPNFGAIPSSTNVGHNTY-NH2 (disulfide 3-8; SMILES CC[C@H](C)[C@H](NC(=O)[C@H](C)NC(=O)CNC(=O)[C@H](Cc1ccccc1)NC(=O)[C@H](CC(N)=O)NC(=O)[C@@H]1CCCN1C(=O)[C@H](CO)NC(=O)[C@H](CO)NC(=O)[C@H](Cc1c[nH]cn1)NC(=O)[C@H](CCCNC(=N)N)NC(=O)[C@H](CC(C)C)NC(=O)[C@H](Cc1ccccc1)NC(=O)[C@H](C)NC(=O)[C@H](C)NC(=O)[C@H](CC(C)C)NC(=O)[C@H](CCCNC(=N)N)NC(=O)[C@H](CCC(N)=O)NC(=O)[C@@H](NC(=O)[C@H](C)NC(=O)[C@@H]1CSSC[C@H](NC(=O)[C@H](CCCNC(=N)N)NC(=O)CNC(=O)CC[C@H](NC(=O)CCCCCCCCCCCCCCCCCCC(=O)O)C(=O)O)C(=O)N[C@@H](CC(N)=O)C(=O)N[C@@H]([C@@H](C)O)C(=O)N[C@@H](C)C(=O)N[C@@H]([C@@H](C)O)C(=O)N1)[C@@H](C)O)C(=O)N1CCC[C@H]1C(=O)N[C@@H](CO)C(=O)N[C@@H](CO)C(=O)N[C@H](C(=O)N[C@@H](CC(N)=O)C(=O)N[C@H](C(=O)NCC(=O)N[C@@H](Cc1c[nH]cn1)C(=O)N[C@@H](CC(N)=O)C(=O)N[C@H](C(=O)N[C@@H](Cc1ccc(O)cc1)C(N)=O)[C@@H](C)O)C(C)C)[C@@H](C)O)
